Experimental data: publication doi:10.1101/460097

Tests used:
[1] = molecular target: mouse (Mus musculus) PCDH15 EC10-MAD12 produced in mammalian cells (mouse (Mus musculus)); assay: SEC-MALS
[2] = molecular target: mouse (Mus musculus) PCDH15 EC10-MAD12 produced in mammalian cells (mouse (Mus musculus)); assay: AUC
[3] = molecular target: mouse (Mus musculus) PCDH15 EC10-MAD12, refolded from bacteria (mouse (Mus musculus)); assay: SEC-MALS
[4] = molecular target: mouse (Mus musculus) PCDH15 EC10-MAD12, refolded from bacteria (mouse (Mus musculus)); assay: SEC-SAXS
[5] = molecular target: pig (Sus scrofa) PCDH15 EC10-MAD12 (pig (Sus scrofa)); assay: SEC-MALS
[6] = molecular target: pig (Sus scrofa) PCDH15 EC10-MAD12 (pig (Sus scrofa)); assay: AUC
[7] = molecular target: pig (Sus scrofa) PCDH15 EC10-MAD12 (pig (Sus scrofa)); assay: SEC-SAXS

Question: What does the source list for “mouse (Mus musculus) PCDH15 EC10-MAD12 produced in mammalian cells (domain or fragment)”?
Answer: stoichiometry N [1]: 2; stoichiometry N [2]: 2

Question: Which results are given for “mouse (Mus musculus) PCDH15 EC10-MAD12, refolded from bacteria (domain or fragment)”?
Answer: stoichiometry N [3]: 2; stoichiometry N [4]: 2

Question: What does the source list for “pig (Sus scrofa) PCDH15 EC10-MAD12 (domain or fragment)”?
Answer: stoichiometry N [5]: 2; stoichiometry N [6]: 2; stoichiometry N [7]: 2
